The values that follow are results of earlier work, collected in article PMC8567204.

Like-named read-outs stand apart in the source and are kept apart here.

Data set [1] deals with Fyn (unfolded) SH3 (UniProt P06241).
The target in data set [2] is Fyn (native) SH3 (UniProt P06241).
Data set [3] has as its target HscB (Escherichia coli) (UniProt P0A6L9).
Data set [4] has as its target HscA (Escherichia coli) (UniProt P0A6Z1).
Data set [5] shares this target. This is another data set of the same source.
Data set [6] addresses Trigger factor (Escherichia coli) (UniProt P0A850).

apo-IscU, sequence (P0ACD4 whole entry): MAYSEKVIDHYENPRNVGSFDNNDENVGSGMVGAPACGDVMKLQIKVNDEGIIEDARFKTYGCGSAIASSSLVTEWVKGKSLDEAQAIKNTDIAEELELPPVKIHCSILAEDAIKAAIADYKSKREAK
Spy, sequence (P77754 24-161): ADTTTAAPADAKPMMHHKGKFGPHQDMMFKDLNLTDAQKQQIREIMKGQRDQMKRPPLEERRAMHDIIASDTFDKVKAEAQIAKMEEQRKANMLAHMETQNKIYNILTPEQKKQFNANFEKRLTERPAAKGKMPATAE
HscA (Escherichia coli), sequence (P0A6Z1 whole entry): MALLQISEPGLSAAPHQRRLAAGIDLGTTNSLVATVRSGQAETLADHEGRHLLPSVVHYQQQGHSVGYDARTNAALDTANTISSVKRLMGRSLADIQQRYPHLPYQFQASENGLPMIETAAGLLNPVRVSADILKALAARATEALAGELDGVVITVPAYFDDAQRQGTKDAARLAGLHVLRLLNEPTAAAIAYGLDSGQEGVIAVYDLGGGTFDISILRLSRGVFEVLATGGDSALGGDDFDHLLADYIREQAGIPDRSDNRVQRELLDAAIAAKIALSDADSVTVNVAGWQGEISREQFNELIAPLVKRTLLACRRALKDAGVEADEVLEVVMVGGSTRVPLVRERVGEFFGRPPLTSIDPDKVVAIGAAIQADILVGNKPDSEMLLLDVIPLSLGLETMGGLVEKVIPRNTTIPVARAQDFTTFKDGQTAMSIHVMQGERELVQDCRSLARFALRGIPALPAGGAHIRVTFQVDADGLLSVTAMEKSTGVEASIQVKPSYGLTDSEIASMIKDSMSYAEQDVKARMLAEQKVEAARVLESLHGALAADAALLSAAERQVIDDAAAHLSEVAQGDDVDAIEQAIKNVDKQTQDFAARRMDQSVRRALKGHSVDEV
HscB (Escherichia coli), sequence (P0A6L9 whole entry): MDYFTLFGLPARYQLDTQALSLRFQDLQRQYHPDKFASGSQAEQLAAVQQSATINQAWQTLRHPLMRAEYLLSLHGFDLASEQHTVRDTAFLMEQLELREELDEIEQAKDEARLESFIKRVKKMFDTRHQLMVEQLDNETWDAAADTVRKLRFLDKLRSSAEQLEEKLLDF
Trigger factor, sequence (P0A850 whole entry): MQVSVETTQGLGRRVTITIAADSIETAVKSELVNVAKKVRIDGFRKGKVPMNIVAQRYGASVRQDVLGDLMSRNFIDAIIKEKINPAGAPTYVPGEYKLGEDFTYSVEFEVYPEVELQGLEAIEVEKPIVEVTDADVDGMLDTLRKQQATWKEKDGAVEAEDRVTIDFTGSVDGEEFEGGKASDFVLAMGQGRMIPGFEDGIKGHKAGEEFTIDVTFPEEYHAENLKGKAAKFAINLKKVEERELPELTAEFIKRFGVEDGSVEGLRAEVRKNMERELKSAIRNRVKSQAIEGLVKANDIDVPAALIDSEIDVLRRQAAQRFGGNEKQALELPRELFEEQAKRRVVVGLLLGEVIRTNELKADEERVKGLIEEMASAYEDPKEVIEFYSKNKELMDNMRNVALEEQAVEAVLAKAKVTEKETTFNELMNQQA
Fyn (unfolded) SH3, sequence (P06241 82-143): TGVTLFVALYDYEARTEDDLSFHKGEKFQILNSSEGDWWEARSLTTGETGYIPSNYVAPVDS
Fyn (native) SH3, sequence (P06241 82-143): as above

Regarding Spy (from UniProt P77754), the Kd in data set [1] is 3000 nM; in data set [2] it was 50 µM.
On to apo-IscU (from UniProt P0ACD4), for which the dissociation constant Kd is 11 µM in data set [3], 9 µM in data set [4] and 37 µM in data set [5].
With Trigger factor (from UniProt P0A850), the Kd in data set [6] is 2000 nM.

In general, Kd refers to the equilibrium constant for the complex coming apart.
